These results are taken from article PMC2741639 (Microbiological research, 2008).

The data set concerns the molecule itself. Nature of the data set: native gel or EMSA. A general note: Mobility shift assays separate free from complexed probe on a gel.

B1: His-tagged Sbm (enzyme, E. coli, UniProt P27253 1-714, looked up)
chain: MSNVQEWQQLANKELSRREKTVDSLVHQTAEGIAIKPLYTEADLDNLEVTGTLPGLPPYVRGPRATMYTAQPWTIRQYAGFSTAKESNAFYRRNLAAGQKGLSVAFDLATHRGYDSDNPRVAGDVGKAGVAIDTVEDMKVLFDQIPLDKMSVSMTMNGAVLPVLAFYIVAAEEQGVTPDKLTGTIQNDILKEYLCRNTYIYPPKPSMRIIADIIAWCSGNMPRFNTISISGYHMGEAGANCVQQVAFTLADGIEYIKAAISAGLKIDDFAPRLSFFFGIGMDLFMNVAMLRAARYLWSEAVSGFGAQDPKSLALRTHCQTSGWSLTEQDPYNNVIRTTIEALAATLGGTQSLHTNAFDEALGLPTDFSARIARNTQIIIQEESELCRTVDPLAGSYYIESLTDQIVKQARAIIQQIDEAGGMAKAIEAGLPKRMIEEASAREQSLIDQGKRVIVGVNKYKLDHEDETDVLEIDNVMVRNEQIASLERIRATRDDAAVTAALNALTHAAQHNENLLAAAVNAARVRATLGEISDALEVAFDRYLVPSQCVTGVIAQSYHQSEKSASEFDAIVAQTEQFLADNGRRPRILIAKMGQDGHDRGAKVIASAYSDLGFDVDLSPMFSTPEEIARLAVENDVHVVGASSLAAGHKTLIPELVEALKKWGREDICVVAGGVIPPQDYAFLQERGVAAIYGPGTPMLDSVRDVLNLISQHHD
As for B1, the “stoichiometry N” value came to 2.

What is called stoichiometry N is the number of molecules, sites or subunits per partner or assembly.
